Data: patent US20190071487A1 (Memorial Sloan Kettering, published 2019)

Target: BTLA (B and T lymphocyte attenuator) on human lymphoma B cells (human, UniProt Q7Z6A9 31-289)
Assay: cell-based or functional assay

B1: Leu39-Val202 soluble HVEM ectodomain polypeptide (receptor)
chain: LPSCKEDEYPVGSECCPKCSPGYRVKEACGELTGTVCEPCPPGTYIAHLNGLSKCLQCQMCDPAMGLRASRNCSRTENAVCGCSPGHFCIVQDGDHCAACRAYATSSPGQRVQKGGTESQDTLCQNCPPGTFSPNGTLEECQHQTKCSWLVTKAGAGTSSSHWV
- correlation of percent pSyk inhibition by solHVEM with BTLA surface expression (ratio of MFI), ten primary human FL B cell samples: 0.697 r
